Results on 55 substances are retold here after the supplement of paper PMC12042874.

± gives the uncertainty stated by the source.

This data set in a line: amyloid nucleation score (Sup35N fusion, yeast selection) (log enrichment); library NNK3; higher = more nucleation; inactive = no reads after selection. In a few lines: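 The nucleation score is the log enrichment of output over input reads, calculated with DiMSum and centred on the mode score of non-aggregating sequences. Sequences with under 100 input reads were excluded. Reads came from Illumina sequencing of plasmid inserts from psi-negative yeast expressing Sup35N fused to peptides of 20 random codons, induced 24 hours with 100 μM copper sulfate and grown 7 days at 30°C without adenine and uracil.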
On to QINWTGHLSMSFICFLNSRV, for which the amyloid nucleation score result was “inactive”.

Take QIRAIMYVFGISVSAVLGAK: the amyloid nucleation score is -0.19 ± 0.49.

Take QKNFLGNF: the amyloid nucleation score result was “inactive”.

On to QLDHGH, for which the amyloid nucleation score result is “inactive”.

QLHNYARMKAQLLAVQV: the amyloid nucleation score entry was “inactive”.

Consider QLIELGRVVTCV, for which the amyloid nucleation score entry is “inactive”.

With QLLQVWVNMFKTTAISWIVF, the amyloid nucleation score entry was “inactive”.

With QLRICTR, the amyloid nucleation score is -0.358 ± 1.1.

QMRVQMSCCFLGTCFSGRHW: the amyloid nucleation score came to 3.29 ± 0.056.

Regarding QNCFHVY, the amyloid nucleation score result is “inactive”.

In the case of QNFPSTSHFNIYC, the amyloid nucleation score was 1.72 ± 0.094.

The substance QNFRFYLTCVSGSGHYRSYT had an amyloid nucleation score of 1.37 ± 0.093.

Consider QNFRIYTVSLLNNRYDELIS, for which the amyloid nucleation score entry is “inactive”.

With QNGDKHYG, the amyloid nucleation score result is “inactive”.

Take QNILLNVIVTRFGSLQWRSE: the amyloid nucleation score was 1.83 ± 0.056.

With QNMCAARPS, the amyloid nucleation score result is “inactive”.

On to QPDFLSWVDACVNKVVYWVK, for which the amyloid nucleation score is -0.421 ± 0.98.

Consider QQLRNWFHLDPTLARKPKFL, for which the amyloid nucleation score result was “inactive”.

Regarding QQPTYKYDDDKNFDSYWLAN, the amyloid nucleation score entry is “inactive”.

Consider QRELSNMVVISLVQAMLWFR, for which the amyloid nucleation score entry is “inactive”.

Take QRFFRCIRSRSWTFTSGVIV: the amyloid nucleation score result is “inactive”.

QRIEYA: the amyloid nucleation score entry was “inactive”.

On to QRRAL, for which the amyloid nucleation score entry is “inactive”.

QRVLY returned an amyloid nucleation score of 0.864 ± 0.15.

With QSFLDTSPHLDHVVNNSIKH, the amyloid nucleation score entry is “inactive”.

On to QSLGVTRFWGLSLLLQNFLP, for which the amyloid nucleation score entry was “inactive”.

With QSNEASCSGCLISKVLKNDN, the amyloid nucleation score result was “inactive”.

In the case of QTEFSIGPYIPTEATSRTCS, the amyloid nucleation score is -0.451 ± 1.

With QTRVHLFAREPPCFTEFNER, the amyloid nucleation score result was “inactive”.

For QVCFQSWDASRSRYRHRLKR, the amyloid nucleation score came to 0.625 ± 0.21.

QVDHNWF: the amyloid nucleation score entry was “inactive”.

Take QVDISNLDCQSCRDKRVGLG: the amyloid nucleation score entry was “inactive”.

QVILHHMADKKAFISTSSSS had an amyloid nucleation score of 1.52 ± 0.074.

Consider QWKPWDNTAVGMLPAWIWVD, for which the amyloid nucleation score entry is “inactive”.

As to QWMQRTW, the amyloid nucleation score result was “inactive”.

With QWRIRSWHMYDSSLARGLD, the amyloid nucleation score entry is “inactive”.

As for QWWITTYFGLIFLYVFYSID, the amyloid nucleation score entry was “inactive”.

On to QYEWLNYSNLVVYSIKYPEN, for which the amyloid nucleation score result was “inactive”.

On to QYFFNRKL, for which the amyloid nucleation score result is “inactive”.

As for QYGIKGRRVKCWLCWHGDVE, the amyloid nucleation score entry is “inactive”.

Take QYLSRCLTWSYVTVKSLRSN: the amyloid nucleation score result was “inactive”.

On to QYSMVVVV, for which the amyloid nucleation score result is “inactive”.

For the substance QYSYSPGCRYLKVMLSNNSE, the amyloid nucleation score entry was “inactive”.

The substance QYWNFFRFVRGDD registered an amyloid nucleation score of 0.601 ± 0.14.

For RACCLFQGDWQERLDSISFA, the amyloid nucleation score entry was “inactive”.

Turning to RAGYVWTAVLRPHSNVAWFV, the amyloid nucleation score entry was “inactive”.

The substance RAITSVSYVWTGRCL came in with an amyloid nucleation score of 0.803 ± 0.14.

On to RALVFIIQVVFRFPCTAGIL, for which the amyloid nucleation score result was “inactive”.

Turning to RAPRVVIGCSMYMGMFSELE, the amyloid nucleation score amounted to 0.772 ± 0.14.

For RASLEYVGKCWWDGPYIEGV, the amyloid nucleation score result was “inactive”.

As to RASTISLGKLVQLYLYSRRL, the amyloid nucleation score amounted to 0.468 ± 0.3.

Take RATKEGKRLDML: the amyloid nucleation score was -0.725 ± 1.9.

In the case of RAVHR, the amyloid nucleation score entry is “inactive”.

For RAWNWWGFVTFPERLMCSHT, the amyloid nucleation score result was “inactive”.

RCDCEFYTLKWQCEVYYRGR: the amyloid nucleation score entry is “inactive”.
